Results published in patent EP4700044A1, “PROTEIN ANALOGUE AND USE THEREOF” (Shanghai Duomirui Biotechnology., Ltd., priority 2023, dated 2024).

What was measured:
[1] = target: T1, FGFR1c and the cofactor β-Klotho (Homo sapiens, UniProt P11362+Q86Z14); assay: dual-luciferase reporter gene assay in iLite FGF21 assay ready cells; type: cell-based
T1 construct: host or cells: iLite FGF21 assay ready cells (genetically engineered reporter gene cell line)
Text: iLite FGF21 assay ready cells (purchased from SAVR) is a genetically engineered reporter gene cell line that responds to signals downstream to FGF21 agonism through the expression of firefly luciferase. The receptor FGFR1c and the cofactor β-Klotho were co-overexpressed on the surface of iLite FGF21 assay ready cells and have undergone genetic optimization to enhance sensitivity, such that FGF21 will cause an increase in luciferase expression in a dose-response manner. The luciferase activity detection kit was purchased from Promega (catalog number #E2980).
iLite FGF21 assay ready cells were cultured adherently in basal medium (DMEM Gluta Max, purchased from Gibco) containing 10% fetal bovine serum (FBS, purchased from Gibco) and 1% penicillin/streptomycin (purchased from Gibco). For the activity determination experiment, […] cells per well and test samples such as FGF21 mutant proteins and FGF21 conjugate molecules modified with albumin-binding agent were added to all-white 96-well culture plates (purchased from Corning), and the chemiluminescence values were detected in a microplate reader according to the instructions of the luciferase activity detection kit. Finally, the half-maximal effective concentration (EC50) values of the tested samples were obtained by means of four-parameter fitting.

[2] = pharmacokinetic test in minipigs; type: in vivo; settings: 1 mg/kg, subcutaneous injection, plasma, human FGF21 ELISA
Procedure: (§1) The pharmacokinetic properties of protein analogs can be tested in mice or minpigs.
(§2) Minipig experiment (N = 3): The injection dose was 1 mg/kg, and the injection method was subcutaneous injection. The blood-collection time points for plasma samples were 0.083, 0.25, 0.5, 1, 2, 4, 6, 8, 12, 24, 48, 72, 96, 120, 144, 168, 192, 216, 240, 264, 288 h. The blood was collected into EDTA·2K-coated test tubes (which must be temporarily stored on ice) and centrifuged at 1200 × g for 10 minutes at 4°C. Subsequently, the plasma was transferred to Micronic tubes and stored at -20°C. The human FGF21 detection ELISA kit (CAT: RD191108200R) produced by Biovendor was used to monitor the blood drug concentration.

[3] = test system: high-fat diet-induced db/db mice; assay: pharmacodynamic test in db/db mice induced by high-fat diet (NASH model); type: in vivo; settings: subcutaneous injection once every three days, 6 weeks, liver sections, hematoxylin-eosin staining
Text: Establishment of a db/db mouse model induced by high-fat diet: Male db/db mice, 8 weeks old, were adaptively fed with a standard diet for 2-3 days, after which all feed was replaced with 60% high-fat feed for rearing. After 3 weeks of high-fat feed feeding, the NASH model could be obtained. Administration: N = 6, subcutaneous injection of Vehicle and protein analogues (5 or 20 nmol/kg) was given once every three days, with an administration period of 6 weeks.
At the end of the administration, liver tissue sections were taken for hematoxylin-eosin staining to detect the effect of protein analogs on the non-alcoholic fatty liver disease activity score (NAS score) in high-fat diet-induced db/db mice.

[4] = pharmacokinetic test in mice; type: in vivo; settings: 1 mg/kg, subcutaneous injection, plasma, human FGF21 ELISA
Procedure: as §1
as §2, with “Mice” for “Minipig”, “0.08,” for “0.083,”, “and 72 hours.” for “72, 96, 120, 144, 168, 192, 216, 240, 264, 288 h.”, “(RD191108200R)” for “(CAT: RD191108200R)”

[5] = Example 13, four-parameter fitting
[6] = Example 6, four-parameter fitting

T1 sequence (P11362 22-822): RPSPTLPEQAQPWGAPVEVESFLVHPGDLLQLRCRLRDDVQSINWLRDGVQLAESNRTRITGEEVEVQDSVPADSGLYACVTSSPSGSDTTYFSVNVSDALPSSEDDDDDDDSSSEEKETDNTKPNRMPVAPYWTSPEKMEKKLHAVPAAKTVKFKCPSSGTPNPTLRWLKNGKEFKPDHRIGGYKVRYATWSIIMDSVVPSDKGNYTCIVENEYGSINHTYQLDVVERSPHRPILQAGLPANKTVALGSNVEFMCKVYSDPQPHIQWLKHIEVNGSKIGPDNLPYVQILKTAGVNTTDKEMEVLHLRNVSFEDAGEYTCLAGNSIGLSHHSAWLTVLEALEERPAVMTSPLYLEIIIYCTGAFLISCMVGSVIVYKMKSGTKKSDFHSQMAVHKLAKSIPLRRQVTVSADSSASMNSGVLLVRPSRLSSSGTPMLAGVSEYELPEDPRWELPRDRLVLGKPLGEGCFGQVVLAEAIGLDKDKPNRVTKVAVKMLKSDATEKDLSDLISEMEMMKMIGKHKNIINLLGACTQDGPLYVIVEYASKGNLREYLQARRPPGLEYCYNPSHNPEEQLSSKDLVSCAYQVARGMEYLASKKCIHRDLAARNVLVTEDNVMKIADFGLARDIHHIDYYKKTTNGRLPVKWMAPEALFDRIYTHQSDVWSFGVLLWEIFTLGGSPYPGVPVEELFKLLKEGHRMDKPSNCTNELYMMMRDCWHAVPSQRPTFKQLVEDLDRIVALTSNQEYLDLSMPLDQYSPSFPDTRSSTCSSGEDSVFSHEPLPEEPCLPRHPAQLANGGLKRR
T1 sequence (Q86Z14 whole entry): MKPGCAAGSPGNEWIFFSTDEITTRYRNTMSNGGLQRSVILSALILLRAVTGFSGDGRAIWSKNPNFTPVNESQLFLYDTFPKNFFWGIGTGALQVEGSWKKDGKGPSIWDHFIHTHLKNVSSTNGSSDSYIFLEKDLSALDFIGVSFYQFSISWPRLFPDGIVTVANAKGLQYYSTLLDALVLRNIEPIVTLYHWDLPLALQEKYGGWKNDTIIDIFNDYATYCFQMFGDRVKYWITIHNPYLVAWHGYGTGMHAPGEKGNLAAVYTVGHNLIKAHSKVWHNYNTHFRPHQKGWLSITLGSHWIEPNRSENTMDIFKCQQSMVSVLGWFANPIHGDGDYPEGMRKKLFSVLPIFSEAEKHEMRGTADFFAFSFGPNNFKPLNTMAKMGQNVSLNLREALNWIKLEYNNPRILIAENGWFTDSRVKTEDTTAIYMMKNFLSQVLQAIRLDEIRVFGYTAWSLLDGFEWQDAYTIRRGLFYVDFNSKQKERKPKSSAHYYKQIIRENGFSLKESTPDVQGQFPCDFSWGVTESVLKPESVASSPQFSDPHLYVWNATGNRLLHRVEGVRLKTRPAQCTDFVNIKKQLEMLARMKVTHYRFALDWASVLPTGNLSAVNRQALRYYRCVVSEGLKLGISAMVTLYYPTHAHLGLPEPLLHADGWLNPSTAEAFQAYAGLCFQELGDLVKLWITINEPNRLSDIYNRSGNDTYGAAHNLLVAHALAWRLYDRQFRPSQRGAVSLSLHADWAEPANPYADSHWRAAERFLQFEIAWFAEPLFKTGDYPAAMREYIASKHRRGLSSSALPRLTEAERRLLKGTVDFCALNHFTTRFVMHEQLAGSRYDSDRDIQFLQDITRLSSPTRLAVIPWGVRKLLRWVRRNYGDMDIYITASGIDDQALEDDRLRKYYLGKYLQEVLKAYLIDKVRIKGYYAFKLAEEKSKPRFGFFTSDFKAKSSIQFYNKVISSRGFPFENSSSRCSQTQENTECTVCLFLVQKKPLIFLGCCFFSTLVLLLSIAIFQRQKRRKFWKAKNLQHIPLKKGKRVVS

| Molecule | EC50 [1, 5] [nM] | half-life [2] [h] | NAS score ([3]; 5 nmol/kg) | NAS score ([3]; 20 nmol/kg) | half-life [4] [h] | EC50 [1, 6] [nM] |
| --- | --- | --- | --- | --- | --- | --- |
| Compound 12.4: Fatty acid-modified PAS-FGF21 dimer: PAS100FGF21 (SEQ ID NO: 16) modified by the side chain of Example 8.5 (conjugate, dimer; fatty acid side chain of Example 8.5) SPCASPAAPAPASPAAPAPSAPAAASAAAPAAASAAASAPSAASAAASPAAPSAPPAAASPAAPSAPPAAASPAAPAPASPAASAPSAPAAASPAAPAPASHPIPDSSPLLQFGGQVRQRYLYTDDAQQTEAHLEIREDGTVGGAADQSPESLLQLKALKPGVIQILGVKTSRFLCQRPDGALYGSLHFDPEACSFRERLLEDGYNVYQSEAHGLPLHLPGNKSPHRDPAPRGPARFLPLPGLPPAPPEPPGILAPQPPDVGSSDPLSMVGGSQGRSPSYES | 0.11 | 75.4 ± 9.4 | – | – | – | – |
| Compound 12.2: Fatty acid-modified PAS-FGF21 dimer: PAS30FGF21 (SEQ ID NO: 14) modified by the side chain of Example 8.5 (conjugate, dimer; fatty acid side chain of Example 8.5) SPCASPAAPAPASPAAPAPSAPAAASAAAPAHPIPDSSPLLQFGGQVRQRYLYTDDAQQTEAHLEIREDGTVGGAADQSPESLLQLKALKPGVIQILGVKTSRFLCQRPDGALYGSLHFDPEACSFRERLLEDGYNVYQSEAHGLPLHLPGNKSPHRDPAPRGPARFLPLPGLPPAPPEPPGILAPQPPDVGSSDPLSMVGGSQGRSPSYES | 0.13 | 65.9 ± 3.8 | 4.33 ± 1.03 | 3.40 ± 1.14 | – | – |
| Compound 5.7: FGF21D46C mutant (SEQ NO: 7) modified by the albumin-binding agent of Example 2.2 (conjugate, albumin-binding agent conjugated) HPIPDSSPLLQFGGQVRQRYLYTDDAQQTEAHLEIREDGTVGGAACQSPESLLQLKALKPGVIQILGVKTSRFLCQRPDGALYGSLHFDPEACSFRERLLEDGYNVYQSEAHGLPLHLPGNKSPHRDPAPRGPARFLPLPGLPPAPPEPPGILAPQPPDVGSSDPLSMVGGSQGRSPSYES | – | – | – | – | 15.9 | 1.06 |
| Compound 5.15: FGF21H125C mutant (SEQ NO: 9) modified by the albumin-binding agent of Example 2.4 (conjugate, albumin-binding agent of Example 2.4) HPIPDSSPLLQFGGQVRQRYLYTDDAQQTEAHLEIREDGTVGGAADQSPESLLQLKALKPGVIQILGVKTSRFLCQRPDGALYGSLHFDPEACSFRERLLEDGYNVYQSEAHGLPLHLPGNKSPCRDPAPRGPARFLPLPGLPPAPPEPPGILAPQPPDVGSSDPLSMVGGSQGRSPSYES | – | – | – | – | 14.1 | 0.47 |
